# Results reported in the supplement of paper PMC9170038.
# Columns and labels:
# MS2 coat protein [1] = assay: apparent KD of MS2 coat protein; designed switch direction (-1 OFF switch, 1 ON switch): 1; higher = weaker reporter binding
# How it was run: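 For each design, the apparent KD is the median over clusters of curves fitted to normalised cluster fluorescence. Clusters held RNA switches with common flanks, transcribed on Illumina chips by stalled E. coli RNA polymerase. These were titrated with SNAP-549-labelled MS2 coat protein, doubling from 0.7 or 1.5 nM to 3 µM, without input, with 200 uM small-molecule ligand, or with an oligonucleotide input.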
# MS2 coat protein [2] = assay: apparent KD of MS2 coat protein; higher = weaker reporter binding; conditions: Eterna round: R107
# How it was run: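 Apparent KD per design is the median of normalised cluster binding-curve fits. Designed RNA switches transcribed on-chip from Illumina sequencing clusters were titrated with SNAP-549-labelled MS2 coat protein in twofold steps from 0.7 or 1.5 nM to 3 µM, with 0.8–1.5 h down to 10–20 min per step. Buffer: 100 mM Tris-HCl pH 7.5, 80 mM KCl, 4 mM MgCl2, without or with constant ligand.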
# [3] = input ligand: microRNA oligo, concentration not stated
# [4] = Eterna round: R95, input ligand: FMN 200 uM
# [5] = Eterna round: R95, input ligand: microRNA oligo, concentration not stated
# [6] = Eterna round: R95, input ligand: none
# [7] = input ligand: theophylline 20 uM
# [8] = input ligand: theophylline 2 mM
# [9] = input ligand: tryptophan 2.4 mM
Sequence,apparent KD of MS2 coat protein (MS2 coat protein [1]; input ligand: FMN 200 uM) [nM],apparent KD of MS2 coat protein (MS2 coat protein [1]; [3]) [nM],apparent KD of MS2 coat protein (MS2 coat protein [1]; input ligand: none) [nM],apparent KD of MS2 coat protein (MS2 coat protein [2]; input ligand: arginine 13.2 mM) [nM],apparent KD of MS2 coat protein (MS2 coat protein [2]; [7]) [nM],apparent KD of MS2 coat protein (MS2 coat protein [2]; [8]) [nM],other results
"AAAAGAAACAUGUACCUGAGUACAUGAAAACAUGAGGAUCACCCAUGUAACAAGCUGGGUGCUCGUCUUAUAAGAAA [JL pocket 1] (Eterna round: R96, puzzle: Sensor for hsa-mir-208a)",137,22.3,77.7,–,–,–,–
"AAAAGAAACAUGUACCUGAGUACAUGAAAACAUGAGGAUCACCCAUGUAACAAGUUGGGUGCUUGUCUUAUAAGAAA [JL pocket 4] (Eterna round: R96, puzzle: Sensor for hsa-mir-208a)",710,66.7,822,–,–,–,–
AAAAGACAUGAGGAUCACCCAUGUAACGGUCGUCAAGGAUAUGCAUAGGUCCAUUGACCAGCAGAAGGUGAUACCU [Xeanlarace] (puzzle: Same State 1),–,–,–,–,–,–,apparent KD of MS2 coat protein (MS2 coat protein [1]; [4]): 400 nM; apparent KD of MS2 coat protein (MS2 coat protein [1]; [5]): 56.6 nM; apparent KD of MS2 coat protein (MS2 coat protein [1]; [6]): 38.3 nM
AAAAUACAUGAGGAUCACCCAUGUAGAAACUACACAGGAUAUCGGACGGCUAUAACCGAACGAGAAGGGUGAACCC [Onorvea] (puzzle: Same State 1),–,–,–,–,–,–,apparent KD of MS2 coat protein (MS2 coat protein [1]; [4]): 260 nM; apparent KD of MS2 coat protein (MS2 coat protein [1]; [5]): 354 nM; apparent KD of MS2 coat protein (MS2 coat protein [1]; [6]): 362 nM
"AAAAUGAGUAUAUGAAAACAAGCUUUUUAACAUGAGGAUCACCCAUGUACUCGUCUUAUAAGCAGUCGAAAGACUGC [hsa-mir-208a sensor: 77] (Eterna round: R96, puzzle: Sensor for hsa-mir-208a)",94.8,17.2,96.6,–,–,–,–
"AAAAUGGUAUGUUACAUGAGGAUCACCCAUGUACUCUAAUCUGAGGAUAUGGGAAUGUAGAAGAACCAGAAGGCAGACAUCCAA [AK SSNG3-V2-22.1] (Eterna round: R96, puzzle: Same State NG 3)",149,70.2,86,–,–,–,–
"AAAAUGUGAUGUUACAUGAGGAUCACCCAUGUAGUGACAACUAAGGAUAUCUGAAAAAAAGGAGAGGAGAAGGUAGGAUCACAA [AK SSNG3-V2-16.1] (Eterna round: R96, puzzle: Same State NG 3)",25.7,26.4,33.2,–,–,–,–
"AAACACAGCAUAACGCUGUGACAUGAGGAUCACCCAUGUACACAGGAUAUCAUGGCAUAACGCCAUGAGAAGGGUGAUCAAGAC [Arxeerte] (Eterna round: R96, puzzle: Same State NG 3)",20.5,2.71,55.3,–,–,–,–
"AAACGGCCGAACGGAGGGCCACAUGAGGAUCACCCAUGUACAUAGGAUAUCACGCCAACGAAGCGUGAGAAGGGUGAUUAAAAC [Anriusxees] (Eterna round: R96, puzzle: Same State NG 3)",341,4.64,104,–,–,–,–
"AAAGAAAACAUAGGAUAUGUAACAUGAGGAUCACCCAUGUAUACCUCGUAAGAGAUGAUGGAUGGACAGAAGGAUGAUCUCAGG [Default title] (Eterna round: R96, puzzle: Same State NG 2)",–,111,–,–,–,–,–
"AAAGGAUGAUGUUACAUGAGGAUCACCCAUGUAGUGAUAACUAAGGAUAUCUGUUAAACAAGUUAAGAGAAGGUAGGAUCAUUA [AK SSNG3-V2-8] (Eterna round: R96, puzzle: Same State NG 3)",42.8,35.6,60.8,–,–,–,–
AAAGUACAUGAGGAUCACCCAUGUCCAAAGAAGUAAGGAUAUACGGAAAGAAAAGAAAAUGUAGAAGGUACAAGAA [Same State 1 #3] (puzzle: Same State 1),–,–,–,–,–,–,apparent KD of MS2 coat protein (MS2 coat protein [1]; [4]): 33 nM; apparent KD of MS2 coat protein (MS2 coat protein [1]; [5]): 65.8 nM; apparent KD of MS2 coat protein (MS2 coat protein [1]; [6]): 57.6 nM
"AAAUAAAACACAGGAUAUGCAGUCAAAACGACGGCAGAAGGGUGAGACAUGAGGAUCACCCAUGUACACAUCCCACGGAUGUGC [Anonised] (Eterna round: R96, puzzle: Same State NG 1)",1060,546,1060,–,–,–,–
"AAAUUACUCCGAGGAUAUGCAUGGCUUUGUGCCGCAGAAGGUGGAUCGACGGACAUGAGGAUCACCCAUGUACACUGUCCUAUA [Gerite] (Eterna round: R96, puzzle: Same State NG 1)",26.4,34.7,46.9,–,–,–,–
AACAAUCUAUCUGAGGAUAUCAUGAAAUAAACAUGAGGAUCACCCAUGUGCAGGAAAACUGCAUAUGAGAAGGCAGAUAGAUUGU [salish99_ss2_r3_058] (puzzle: Same State 2),–,–,–,–,–,–,apparent KD of MS2 coat protein (MS2 coat protein [1]; [4]): 57.7 nM; apparent KD of MS2 coat protein (MS2 coat protein [1]; [5]): 1020 nM; apparent KD of MS2 coat protein (MS2 coat protein [1]; [6]): 1580 nM
AACAAUCUAUCUGAGGAUAUCAUGAAAUAAACAUGAGGAUCACCCAUGUGCAGGAAAACUGCAUAUGAGAAGGCAGAUAGAUUUA [salish99_ss2_r3_057] (puzzle: Same State 2),–,–,–,–,–,–,apparent KD of MS2 coat protein (MS2 coat protein [1]; [4]): 43.8 nM; apparent KD of MS2 coat protein (MS2 coat protein [1]; [5]): 638 nM; apparent KD of MS2 coat protein (MS2 coat protein [1]; [6]): 1000 nM

Sequence,apparent KD of MS2 coat protein (MS2 coat protein [1]; input ligand: FMN 200 uM) [nM],apparent KD of MS2 coat protein (MS2 coat protein [1]; [3]) [nM],apparent KD of MS2 coat protein (MS2 coat protein [1]; input ligand: none) [nM],apparent KD of MS2 coat protein (MS2 coat protein [2]; input ligand: arginine 13.2 mM) [nM],apparent KD of MS2 coat protein (MS2 coat protein [2]; [7]) [nM],apparent KD of MS2 coat protein (MS2 coat protein [2]; [8]) [nM],other results
AACAAUCUAUCUGAGGAUAUCAUGAAAUAAACAUGAGGAUCACCCAUGUGCAGUAAAACUGCAUAUGAGAAGGCAGAUAGAUUGA [salish99_ss2_r3_039] (puzzle: Same State 2),–,–,–,–,–,–,apparent KD of MS2 coat protein (MS2 coat protein [1]; [4]): 93.3 nM; apparent KD of MS2 coat protein (MS2 coat protein [1]; [5]): 1850 nM; apparent KD of MS2 coat protein (MS2 coat protein [1]; [6]): 1820 nM
AACAAUCUAUCUGAGGAUAUCAUGAUAUAAACAUGAGGAUCACCCAUGUGCAGGAAAACUGCAUAUGAGAAGGCAGAUAGAUUGA [salish99_ss2_r3_031] (puzzle: Same State 2),–,–,–,–,–,–,apparent KD of MS2 coat protein (MS2 coat protein [1]; [4]): 43 nM; apparent KD of MS2 coat protein (MS2 coat protein [1]; [5]): 232 nM; apparent KD of MS2 coat protein (MS2 coat protein [1]; [6]): 118 nM
UUAUAAGUACCGGUCCUCAGAUCCUCAUGACGAGGACCGGUACGGCCGCCACUCGAAACAUGAGGAUCACCCAUGUAAUAAUACC [Brourdmod12],–,–,–,36.6,71.5,54.2,–
UUAUAUACUACGGCCGCCACUGAACAUGAGGAUCACCCAUGUAAUGUUCAGACGUCUUUAGACGACAGGACCGGGUAGAAUUAAA [Tryptophan B 1],–,–,–,79.5,114,122,–
UUCAAAGGGAACGGUGCUGGUAGCAGAGAUACCAGAGUAAUGAUACUCCCUUGGCAGCUCAGUACAUGAGGAUCACCCAUGUAAU [Exclusion Theophylline A GF24],–,–,–,13.8,20.2,15.9,apparent KD of MS2 coat protein (MS2 coat protein [2]; input ligand: none): 13.5 nM; apparent KD of MS2 coat protein (MS2 coat protein [2]; [9]): 15.1 nM
UUCACAUGAUCUGAAUAUACAGAAAAGAAACGAGGACCGGUACGGCCGCCACUCGUGCCGGAAACAUGAGGAUCACCCAUGUGUU [AK1.3 Exclusion TrypA mod IceBolt],–,–,–,19.7,28.5,26.2,–
UUCACAUGGUAUGAAUAUACAUAUAAGAAACGAGGACCGGUACGGCCGCCACUCGUGCCGGAAACAUGAGGAUCACCCAUGUGUU [AK1.1 Exclusion TrypA mod IceBolt],–,–,–,27,55.9,64.8,–
UUCGUAUUGUCGGCCGCCACUGCAACAUGAGGAUCACCCAUGUAAAUUUGGGAGUAGUUAUAUUACAGGACCGGGACAAUAGUAA [JR_ExcTryptoB_Sub019],–,–,–,51.8,113,140,–
UUCGUUUGCGGAAGGAGCGACGGACAUCGGUGAACAACGCACAUGAGGAUCACCCAUGUACGUCAGGUAGGUCGCCGCUAAGAGU [XArg-B3],–,–,–,29.3,134,375,apparent KD of MS2 coat protein (MS2 coat protein [2]; input ligand: none): 105 nM; apparent KD of MS2 coat protein (MS2 coat protein [2]; [9]): 73.6 nM
UUGCAGAUCGGAAAGGUCCUGCUGUUCGAAGGAGCGGUAAAAGUACCAGGUAGGUCGCGAACAUGAGGAUCACCCAUGUUUGCAA [Usmaenbi],–,–,–,11.3,28.2,20.2,apparent KD of MS2 coat protein (MS2 coat protein [2]; input ligand: none): 22.3 nM; apparent KD of MS2 coat protein (MS2 coat protein [2]; [9]): 21.1 nM
UUGGGUUUGUGAAGGAGCGGGAAAGAUAUAUAUUUAAUCCUAACAUGAGGAUCACCCAUGUCCCAGGUAGGUCGCGCGGGUUUGG [12.O],–,–,–,33.9,46.4,64.3,apparent KD of MS2 coat protein (MS2 coat protein [2]; input ligand: none): 47.1 nM; apparent KD of MS2 coat protein (MS2 coat protein [2]; [9]): 46.9 nM
UUGUUGUUUGGAAGGAGCGUGUAUGAGUUAGAACAUGAGGAUCACCCAUGUUGGAUGAUAGCACAGGUAGGUCGCCGGGUGGUGG [11.Y],–,–,–,8.43,18.4,66.8,apparent KD of MS2 coat protein (MS2 coat protein [2]; input ligand: none): 24.1 nM; apparent KD of MS2 coat protein (MS2 coat protein [2]; [9]): 11 nM
UUUACAUGAGGAUCACCCAUGUGCCAUGAUACCAGACAUGAAAAUGUCCCUUGGCAGCAUGAGUGAUAUGCGUCGGAAACGACGC [Jundrov],–,–,–,499,102,1210,apparent KD of MS2 coat protein (MS2 coat protein [2]; input ligand: none): 153 nM; apparent KD of MS2 coat protein (MS2 coat protein [2]; [9]): 194 nM
UUUACGGGAAACCGAACUAAACAAAGGGAAGGAGCGCCAAACAAGGCAGGUAGGUCGCCCACAUGAGGAUCACCCAUGUGUUGGG [Exclusion Arginine A GF 25],–,–,–,32.6,67.9,64,apparent KD of MS2 coat protein (MS2 coat protein [2]; input ligand: none): 60.3 nM; apparent KD of MS2 coat protein (MS2 coat protein [2]; [9]): 53.2 nM
UUUUUCGUAGGUUAAAGUUUAGAAACUGAAGGAGCGUGGUAAUACACAGGUAGGUCGCAGAUUUUACAUGAGGAUCACCCAUGUU [JR_ExcArginiA_Sub012],–,–,–,26.9,20.7,26.2,apparent KD of MS2 coat protein (MS2 coat protein [2]; input ligand: none): 24.5 nM; apparent KD of MS2 coat protein (MS2 coat protein [2]; [9]): 21.1 nM
UUUUUUAUUGGGUAUAGAAUAUUAACUGAAGGAGCGUGGUAUUACACAGGUAGGUCGCAGUUUUUACAUGAGGAUCACCCAUGUU [JR_SSArginiA_Sub010],–,–,–,36.1,51.5,60.1,apparent KD of MS2 coat protein (MS2 coat protein [2]; input ligand: none): 38.5 nM; apparent KD of MS2 coat protein (MS2 coat protein [2]; [9]): 39 nM
